Each block holds one binder with its values, some of them ahead of it.
Tests used:
[1] = biological target: T1, hCD22 fragment Bin 1, IVR1 (aa1-135), displayed on yeast cells (human, UniProt P20273 20-154); assay: yeast display cell ELISA, native cells
T1 construct: range 1-135; Range is counted on the mature ECD, not on the UniProt entry; on P20273 it would be 20-154 (my arithmetic); also called CD22 Sub-Domain 1; not shown: Aga2-HA display fusion partner of vector pPNL6; MYC tag
T1 sequence (looked up): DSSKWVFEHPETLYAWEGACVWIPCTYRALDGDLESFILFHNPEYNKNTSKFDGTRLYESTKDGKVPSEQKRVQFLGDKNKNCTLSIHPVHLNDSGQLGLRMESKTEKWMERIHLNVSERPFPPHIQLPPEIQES
Method: (§1) The YSD vector (pPNL6) was from The Pacific Northwest National Laboratory, USA. […] The HRP activity was assayed with substrate TMB (tetramethyl benzidine) according to the manufacture’s conditions and read at OD₄₅₀.
(§2) Table 7 depicts the assessment of the nature of the epitopes of CD22 sdAbs to determine if the epitopes for the sdAbs are continuous (linear) or non-continuous (conformational). […] The binding of each sdAb to native and denatured CD22 fragments was measured as OD₄₅₀, and the ratio of the binding to denatured CD22 to non-denatured CD22 was calculated, with the ratio ≥ 0.5 indicative linear (L), and the ratio < 0.5 indicative of conformational (C) epitopes.

[2] = biological target: T1, hCD22 fragment Bin 1, IVR1 (aa1-135), …; assay: yeast display cell ELISA, biotinylated sdAb 250 nM
Method: as §1
(§3) The wells that gave rise to OD₄₅₀ above 0.25 were highlighted, indicating significant antibody-antigen interactions. All the sdAbs tested except hCd22_1ug-14 were assigned to specific Bin(s).

[3] = biological target: T1, hCD22 fragment Bin 1, IVR1 (aa1-135), …; assay: yeast display cell ELISA, heat denatured cells (80 C, 30 min)
Method: as §1, §2

[4] = biological target: T1, hCD22 fragment Bin 1, IVR1 (aa1-135), …; assay: yeast display cell ELISA, OD on denatured over non-denatured CD22 fragment
Method: as §1, §2

[5] = biological target: T2, full-length hCD22-ECD (668aa) displayed on yeast cells (human, UniProt P20273 20-687); assay: yeast display cell ELISA, native cells
T2 construct: extracellular domain; Yeast surface display fusion Aga2-HA-(insert)-MYC; also called Bin 8; CD22-ECD Full lenght; not shown: Aga2-HA display fusion partner of vector pPNL6; MYC tag
T2 sequence (looked up): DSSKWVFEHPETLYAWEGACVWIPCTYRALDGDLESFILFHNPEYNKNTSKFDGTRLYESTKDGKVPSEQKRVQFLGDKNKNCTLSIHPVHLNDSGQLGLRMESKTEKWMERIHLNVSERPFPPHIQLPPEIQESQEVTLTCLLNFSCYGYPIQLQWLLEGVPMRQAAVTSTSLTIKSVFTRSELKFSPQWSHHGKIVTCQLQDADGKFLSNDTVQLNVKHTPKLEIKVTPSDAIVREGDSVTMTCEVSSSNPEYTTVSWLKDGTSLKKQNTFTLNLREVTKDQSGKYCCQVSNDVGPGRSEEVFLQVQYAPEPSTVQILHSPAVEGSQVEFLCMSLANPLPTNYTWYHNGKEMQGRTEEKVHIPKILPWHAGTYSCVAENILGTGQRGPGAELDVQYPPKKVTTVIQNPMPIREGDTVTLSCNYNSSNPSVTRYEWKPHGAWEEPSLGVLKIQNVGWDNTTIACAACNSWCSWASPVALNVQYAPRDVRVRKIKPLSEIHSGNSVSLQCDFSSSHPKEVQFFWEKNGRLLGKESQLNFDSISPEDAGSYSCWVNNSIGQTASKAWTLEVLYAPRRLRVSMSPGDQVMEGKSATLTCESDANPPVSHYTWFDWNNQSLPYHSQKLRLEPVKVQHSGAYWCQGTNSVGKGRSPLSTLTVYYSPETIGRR
Method: as §1, §2

[6] = biological target: T2, full-length hCD22-ECD (668aa) displayed …; assay: yeast display cell ELISA, heat denatured cells (80 C, 30 min)
Method: as §1, §2

[7] = biological target: T2, full-length hCD22-ECD (668aa) displayed …; assay: yeast display cell ELISA, OD on denatured over non-denatured CD22 ECD
Method: as §1, §2

[8] = biological target: T3, hCD22 fragment Bin 4, IVR4 (aa303-405), displayed on yeast cells (human, UniProt P20273 322-424); assay: yeast display cell ELISA, native cells
T3 construct: Range is counted on the mature ECD, not on the UniProt entry; on P20273 it would be 322-424 (my arithmetic); also called CD22 Sub-Domain 4; not shown: Aga2-HA display fusion partner of vector pPNL6; MYC tag
T3 sequence (looked up): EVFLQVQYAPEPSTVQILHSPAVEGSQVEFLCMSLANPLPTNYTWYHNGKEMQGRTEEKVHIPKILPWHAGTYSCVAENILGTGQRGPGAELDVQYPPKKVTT
Method: as §1, §2

[9] = biological target: T3, hCD22 fragment Bin 4, IVR4 (aa303-405), …; assay: yeast display cell ELISA, biotinylated sdAb 250 nM
Method: as §1, §3

[10] = biological target: T3, hCD22 fragment Bin 4, IVR4 (aa303-405), …; assay: yeast display cell ELISA, heat denatured cells (80 C, 30 min)
Method: as §1, §2

- Non denatured CD22 OD [1]: 2.32 OD450
- OD450 [2]: 2.03 OD450
- Heat Inactivated CD22 OD [3]: 1.77 OD450
- CD22 Ratio (D/ND) [4]: 0.762
B1: hCD221ug-80 (VHH)
VHH: QVQLVESGGGLVQPGGSLRLSCTFSGFTLDYYVMVWFRQAPGKEREAVSCITSDGVTYYADSVKGRFTISRDNAKNTVYLQMNRVKPEDTAVYYCAVDKPFYDGGIQYTCPVDFDSWGQGAQVTVSS
modifications: single biotin at the VHH C-terminal (biotinylation signal sequence)
notes: llama VHH, expressed in E. coli TG1, IMAC purified, monomeric SEC fraction; also called VHH # 1; 2-hCD22 1ug-80

- Non denatured CD22 OD [5]: 0.789 OD450
- Heat Inactivated CD22 OD [6]: 0 OD450
- CD22 Ratio (D/ND) [7]: 0
B2: hCD22pas-32 (VHH)
VHH: QVQLVESGGGLVQAGGSLRLSCAVSGRIFRSYVLGWFRQAPGKERELVARIGWSDTYYADSVKGRFTISRDNAKNTVDLQMNSLKPEDTAVYYCAANSPPYGPQRDEFGYWGQGTQVTVSS
modifications: single biotin at the VHH C-terminal (biotinylation signal sequence)
notes: llama VHH, expressed in E. coli TG1, IMAC purified, monomeric SEC fraction; also called VHH # 15; 6-hCD22 pas-32

- Non denatured CD22 OD [8]: 1.23 OD450
- OD450 [9]: 0.752 OD450
- Heat Inactivated CD22 OD [10]: 0.686 OD450
B3: hCD221ug-13 (VHH)
VHH: QVQLVESGGGLVQAGDSLRLSCAGSGGSFSSVTMAWFRQAPGKDREFVAAITWSSPSTYYADSVKGRFTISRDNAKNTVYLQMNSLKPEDTAVYYCAGGRTGRGTSADTDEYNYWGQGTQVTVSS
modifications: single biotin at the VHH C-terminal (biotinylation signal sequence)
notes: llama VHH, expressed in E. coli TG1, IMAC purified, monomeric SEC fraction; also called VHH # 21; 1-hCD22 1ug-13
